The experiment deals with T1, RXFP1(1–72) (Homo sapiens, UniProt Q9HBX9).
T1 construct: GB1 (N, cleaved yes); made in house; host or cells: E. coli BL21 (DE3) trxB
T1 sequence (Q9HBX9 23-94 limits assumed): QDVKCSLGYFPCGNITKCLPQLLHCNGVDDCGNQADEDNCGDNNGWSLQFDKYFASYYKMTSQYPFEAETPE
Put plainly: 2D 1H-15N HSQC monitored H2 relaxin titration of 15N-labelled RXFP1(1–72). Particulars: 50 μM 15N-labelled RXFP1(1–72); single-site binding curve fit of Asp51, Ala55, Thr61 chemical shifts; pH 6.8, 25 °C; read-out: affinity (Kd) of H2 relaxin for RXFP1(1–72). On the procedure: All RXFP1(1–72) protein samples for nuclear magnetic resonance (NMR) experiments were prepared from lyophilized protein in 50 mM imidazole, with 10 mM CaCl2 at pH 6.8. Recombinant human gene-2 H2 relaxin peptide was kindly provided by Corthera. EL1^(475–486)/EL2-GB1 samples were prepared as described above. Titrant and titrand were dialyzed in the same buffer in the same vessel. All NMR experiments were routinely collected at 25 °C on a 700-MHz Bruker Avance HDIII spectrometer equipped with triple resonance cryoprobe. […] Backbone assignments were made from 3D HNCACB, HNCOCACB, HNCO and HNCACO experiments. Spectra were processed using NMRPipe (ref. [43]) and typically Fourier-transformed after applying Lorentz-to-Gauss window functions in the direct dimension and cosine bells in the indirect dimensions. NMR data were analysed using SPARKY (Goddard, T.D. and Kneller, D.G., University of California, San Francisco). Assignments of the mutant RXFP1(1–72) proteins were determined from the assignments of wild-type RXFP1(1–72).
The binding of H2 relaxin to RXFP1(1–72) was monitored by acquiring 2D ^1H-^15N Heteronuclear Single Quantum Coherence (HSQC; 2,048 × 256 data points) for each titration point of increasing H2 relaxin: 25, 50, 100, 200, 400 and 500 μM against 50 μM RXFP1(1–72). […]

Values joined by “and” are separate entries in the source; they are usually repeats but may differ in a detail not shown here. Identical values can stand only once.

With “H2 relaxin: two-chain 6-kDa peptide hormone structurally related to insulin; recombinant human gene-2 H2 relaxin provided by Corthera”, the dissociation constant (Kd) was 200 µM and ~200 µM.

The values are drawn from PMC4837482, “The complex binding mode of the peptide hormone H2 relaxin to its receptor RXFP1” (Nature Communications, 2016).
